# From US20240294593A1 (Genentech, published 2024)
# Substitutions are numbered along the chain they refer to. Names and notes keep the numbering of the source. Where two headings read alike, the source gives them in different places.
# T1: cynomolgus PD-1-His (cynomolgus monkey)
# T1 chain: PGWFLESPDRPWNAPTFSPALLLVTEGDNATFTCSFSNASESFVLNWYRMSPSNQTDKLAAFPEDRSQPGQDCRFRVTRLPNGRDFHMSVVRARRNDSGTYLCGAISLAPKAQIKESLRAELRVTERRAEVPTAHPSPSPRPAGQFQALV
# B1: XENP31986 (mAb C H1_L1.1 x IL-15[D30N/E64Q/N65D/N71Q/N79Q/N112Q] w/(G4A) Linker) (Fc fusion)
# chain: ITCPPPMSVEHADIWVKSYSLYSRERYICNSGFKRKAGTSSLTECVLNKATNVAHWTTPSLKCIRGGGGAGGGGAGGGGAGGGGAGGGGANWVNVISDLKKIEDLIQSMHIDATLYTESNVHPSCKVTAMKCFLLELQVISLESGDASIHDTVQDLIILAQNSLSSNGQVTESGCKECEELEEKNIKEFLQSFVHIVQMFIQTSEPKSSDKTHTCPPCPAPPVAGPSVFLFPPKPKDTLMISRTPEVTCVVVDVKHEDPEVKFNWYVDGVEVHNAKTKPREEEYNSTYRVVSVLTVLHQDWLNGKEYKCKVSNKALPAPIEKTISKAKGQPREPQVYTLPPSREEMTKNQVSLTCDVSGFYPSDIAVEWESDGQPENNYKTTPPVLDSDGSFFLYSKLTVDKSRWEQGDVFSCSVLHEALHSHYTQKSLSLSPGK
# heavy: EVQLVESGGGLVQPGGSLRLSCAASGFTFSSFGMHWVRQAPGKGLEWVSYISSGSSIIYYADSVKGRFTISRDNAKNSLYLQMNSLRAEDTAVYYCARGGRLVWSPDYWGQGTLVTVSSASTKGPSVFPLAPSSKSTSGGTAALGCLVKDYFPEPVTVSWNSGALTSGVHTFPAVLQSSGLYSLSSVVTVPSSSLGTQTYICNVNHKPSNTKVDKKVEPKSCDKTHTCPPCPAPPVAGPSVFLFPPKPKDTLMISRTPEVTCVVVDVKHEDPEVKFNWYVDGVEVHNAKTKPREEQYNSTYRVVSVLTVLHQDWLNGKEYKCKVSNKALPAPIEKTISKAKGQPREPQVYTLPPSREQMTKNQVKLTCLVKGFYPSDIAVEWESNGQPENNYKTTPPVLDSDGSFFLYSKLTVDKSRWQQGNVFSCSVLHEALHSHYTQKSLSLSPGK
# light: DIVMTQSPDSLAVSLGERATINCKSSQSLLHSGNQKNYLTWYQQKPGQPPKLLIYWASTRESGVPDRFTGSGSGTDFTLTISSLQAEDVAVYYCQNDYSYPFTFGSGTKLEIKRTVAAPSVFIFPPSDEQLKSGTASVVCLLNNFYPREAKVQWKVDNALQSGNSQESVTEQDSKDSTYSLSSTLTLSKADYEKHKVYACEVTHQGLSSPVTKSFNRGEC
# notes: scIL-15/Rα x Fab format
# B2: XENP32435 (PD-1-targeted IL-15/Rα-Fc having Trp engineered/affinity repaired mAb C[PD1]_H1.176_L1.140 and IL-15[D30N/E64Q/N65D/N71Q/N79Q/N112Q]) (Fc fusion)
# chain: B1 chain
# heavy: B1 heavy with F32L, W104F
# light: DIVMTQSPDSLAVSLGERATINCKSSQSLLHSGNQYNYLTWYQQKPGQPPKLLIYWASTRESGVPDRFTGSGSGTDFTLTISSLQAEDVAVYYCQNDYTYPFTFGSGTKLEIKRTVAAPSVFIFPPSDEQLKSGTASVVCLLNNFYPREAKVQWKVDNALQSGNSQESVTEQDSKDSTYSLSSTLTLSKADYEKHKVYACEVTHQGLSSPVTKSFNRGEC
# B3: XENP29708 (W100Y) (antibody, V domains shown)
# VH: EVQLVESGGGLVQPGGSLRLSCAASGFTFSSFGMHWVRQAPGKGLEWVSYISSGSSIIYYADSVKGRFTISRDNAKNSLYLQMNSLRAEDTAVYYCARGGRLVYSPDYWGQGTLVTVSS
# VL: DIVMTQSPDSLAVSLGERATINCKSSQSLLNSGNQKNYLTWYQQKPGQPPKLLIYWASTRESGVPDRFTGSGSGTDFTLTISSLQAEDVAVYYCQNDYSYPFTFGSGTKLEIKR
# notes: the panel label gives the substitution; also called mAb C[PD-1]_H1L1 W100Y (Kabat) variant; copies: 2 + 2
# B4: XENP29706 (W100F) (antibody, V domains shown)
# VH: B3 VH with Y104F
# VL: B3 VL
# notes: the panel label gives the substitution; also called mAb C[PD-1]_H1L1 W100F (Kabat) variant; copies: 2 + 2
# B5: mab_C[PD-1]_H1_L1.3 (bivalent IgG1) (antibody, V domains shown)
# VH: B3 VH with Y104W
# VL: B3 VL with N31S
# notes: Bivalent IgG1 format with E233P/L234V/L235A/G236_/S267K; copies: 2 + 2
# B6: XENP29714 (W100R) (antibody, V domains shown)
# VH: B3 VH with Y104R
# VL: B3 VL
# notes: the panel label gives the substitution; also called mAb C[PD-1]_H1L1 W100R (Kabat) variant; copies: 2 + 2
# B7: XENP29710 (W100H) (antibody, V domains shown)
# VH: B3 VH with Y104H
# VL: B3 VL
# notes: the panel label gives the substitution; also called mAb C[PD-1]_H1L1 W100H (Kabat) variant; copies: 2 + 2
# B8: mAb C[PD-1]_H1_L1.1 (bivalent IgG1) (antibody, V domains shown)
# VH: B3 VH with Y104W
# VL: B3 VL with N31H
# notes: as for B5
# B9: XENP29711 (W100Q) (antibody, V domains shown)
# VH: B3 VH with Y104Q
# VL: B3 VL
# notes: the panel label gives the substitution; also called mAb C[PD-1]_H1L1 W100Q (Kabat) variant; copies: 2 + 2
# B10: XENP29713 (W100E) (antibody, V domains shown)
# VH: B3 VH with Y104E
# VL: B3 VL
# notes: the panel label gives the substitution; also called mAb C[PD-1]_H1L1 W100E (Kabat) variant; copies: 2 + 2
# B11: XENP29712 (W100S) (antibody, V domains shown)
# VH: B3 VH with Y104S
# VL: B3 VL
# notes: the panel label gives the substitution; also called mAb C[PD-1]_H1L1 W100S (Kabat) variant; copies: 2 + 2
# Legend:
# [1] = biological target: T1, cynomolgus PD-1-His; test: sensorgram, panel Cyno PD-1; Octet per legend paragraph 199, axes printed as Response (RU) against Time
# [2] = biological target: T2, human PD-1-His (human, UniProt Q15116 25-167, limits assumed); test: sensorgram, panel Human PD-1; Octet per legend paragraph 199, axes printed as Response (RU) against Time (s)
# T2 construct: Antigen of the Octet assays; not shown: His tag
# T2 sequence (Q15116 25-167 limits assumed): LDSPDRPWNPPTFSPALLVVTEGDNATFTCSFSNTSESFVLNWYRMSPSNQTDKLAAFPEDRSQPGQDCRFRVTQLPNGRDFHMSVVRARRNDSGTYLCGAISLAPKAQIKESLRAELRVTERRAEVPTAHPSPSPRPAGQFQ
# [3] = biological target: T1, cynomolgus PD-1-His; test: sensorgram, panel Cyno PD-1; Octet per legend paragraph 199, axes printed as Response (RU) against Time
# [4] = biological target: T2, human PD-1-His; test: sensorgram, panel Human PD-1; Octet per legend paragraph 199, axes printed as Response (RU) against Time (s); remark: listed apart in the source
# [5] = biological target: T2, human PD-1-His; test: Octet (BLI) sensorgram; XENP29708 loaded on the biosensor, analyte Sample ID XENP15593 at 300, 30, 3 nM [Cont.]
# [6] = biological target: T2, human PD-1-His; test: Octet (BLI); XENP29706 loaded on the biosensor, analyte Sample ID XENP15593 at 300, 30, 3 nM; KD (M) printed in the legend under the plot
# [7] = biological target: T2, human PD-1-His; test: Octet affinity screen; bivalent IgG1 format; reference mAb C[PD-1]_H1L1
# [8] = biological target: T2, human PD-1-His; test: Octet
# [9] = biological target: T2, human PD-1-His; test: Octet (BLI) sensorgram; XENP29714 loaded on the biosensor, analyte Sample ID XENP15593 at 300, 30, 3 nM [Cont.]
# [10] = biological target: T2, human PD-1-His; test: Octet (BLI) sensorgram; XENP29710 loaded on the biosensor, analyte Sample ID XENP15593 at 300, 30, 3 nM [Cont.]
# [11] = biological target: T2, human PD-1-His; test: Octet (BLI) sensorgram; XENP29711 loaded on the biosensor, analyte Sample ID XENP15593 at 300, 30, 3 nM [Cont.]
# [12] = biological target: T2, human PD-1-His; test: Octet (BLI) sensorgram; XENP29713 loaded on the biosensor, analyte Sample ID XENP15593 at 300, 30, 3 nM [Cont.]
# [13] = biological target: T2, human PD-1-His; test: Octet (BLI) sensorgram; XENP29712 loaded on the biosensor, analyte Sample ID XENP15593 at 300, 30, 3 nM [Cont.]
binder,measurement,setting,value
B1,Kd,[1],4.5 nM
same,Kd,[2],4.3 nM
B2,Kd,[3],2.7 nM
same,Kd,[4],2.8 nM
B3,binding result,[5],no binding (tested: 300 nM)
B4,Kd,[6],309 nM
B5,fold improved affinity over WT,[7],> 2 fold
same,Kd,[8],10.8 nM
same,koff,[8],0.00165 s⁻¹
same,kon,[8],153000 M⁻¹ s⁻¹
B6,binding result,[9],no binding (tested: 300 nM)
B7,binding result,[10],no binding (tested: 300 nM)
B8,fold improved affinity over WT,[7],> 2 fold
same,Kd,[8],5.46 nM
same,koff,[8],0.000532 s⁻¹
same,kon,[8],97300 M⁻¹ s⁻¹
B9,binding result,[11],no binding (tested: 300 nM)
B10,binding result,[12],no binding (tested: 300 nM)
B11,binding result,[13],no binding (tested: 300 nM)
